From patent US20190136256

Molecular target: T1, Myc tagged AN (AN-Myc)
T1 chain: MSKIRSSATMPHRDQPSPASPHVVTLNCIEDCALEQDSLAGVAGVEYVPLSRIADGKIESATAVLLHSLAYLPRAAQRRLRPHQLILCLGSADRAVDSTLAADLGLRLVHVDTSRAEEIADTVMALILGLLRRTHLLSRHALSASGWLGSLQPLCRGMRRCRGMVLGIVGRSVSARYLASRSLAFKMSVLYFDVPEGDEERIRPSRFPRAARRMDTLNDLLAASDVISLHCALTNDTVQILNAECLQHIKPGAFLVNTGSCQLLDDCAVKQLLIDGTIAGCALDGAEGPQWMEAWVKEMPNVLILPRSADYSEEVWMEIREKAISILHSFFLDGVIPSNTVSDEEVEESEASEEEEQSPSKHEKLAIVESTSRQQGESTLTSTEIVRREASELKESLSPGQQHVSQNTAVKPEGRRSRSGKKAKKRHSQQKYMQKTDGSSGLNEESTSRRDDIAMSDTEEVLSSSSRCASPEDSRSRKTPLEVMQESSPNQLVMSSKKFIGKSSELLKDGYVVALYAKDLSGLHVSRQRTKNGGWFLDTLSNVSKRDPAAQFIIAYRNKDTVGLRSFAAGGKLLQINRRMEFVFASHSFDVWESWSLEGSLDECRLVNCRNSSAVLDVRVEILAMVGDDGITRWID

B1: HA-tagged TDP1 (HA-TDP1) (protein)
chain: MAHSQVAYLIPLKADLKEDNSSPRITLSEGPNIIGRGNVSIVDKRLSRKHITIIVSTSGSASLSVDGTNPVVIRSSGDGERKKVKPSEEVSVCNDDLIELIPGHHFFKLVLLNGRAAKKARKAEDDVEAIRRFCPPNEKLPSTFRLLSVDALPDWANTSCVSINDVIEGDVVAAILSNYMVDIDWLMSACPKLANIPQVMVIHGEGDGRQEYIQRKKPANWILHKPRLPISFGTHHSKAIFLVYPRGVRVVVHTANLIHVDWNNKSQGLWMQDFPWKDDDKDPPKGCGFEGDLIDYLNVLKWPEFTANLPGRGNVKINAAFFKKFDYSDATVRLIASVPGYHTGFNLNKWGHMKLRTILQECIFDREFRRSPLIYQFSSLGSLDEKWLAEFGNSLSSGITEDKTPLGPGDSLIIWPTVEDVRCSLEGYAAGNAIPSPLKNVEKPFLKKYWARWKADHSARGRAMPHIKTFTRYNDQKIAWFLLTSSNLSKAAWGALQKNNSQLMIRSYELGVLFLPSPIKTQGCVFSCTESNPSVMKAKQETKDEVEKRSKLVTMTWQGDRDLPEIISLPVPYQLPPKPYSPEDVPWSWDRGYSKKDVYGQVWPR
- µChIP-qPCR: association of AN with MYB46 promoter: the chromatin association of AN with MYB46 promoter was significantly increased (p<0.05) in vivo when co-expressed with TDP1
